Data reported in patent US20240368565A1, “COMPLEMENTATION-BASED TAGS AND REPORTERS FOR DUAL-MODALITY LABELING” (Promega Corporation, priority 2023, published 2024).

How the values were obtained:
[1] = test system: DualTag peptide; experiment: Dissociation kinetics after complementation with synthetic peptide (dilution, luminescence); conditions: 100 nM protein, 200 nM peptide, diluted to 1 pM, furimazine
Experimental: After preincubation with peptide, samples were diluted to 1 pM in either buffer alone or buffer 100 nM Tag peptide. At various time points, samples were transferred into luminescent substrate (Furimazine) to monitor dissociation of the complex.

[2] = test system: DualTag peptide; experiment: BRET measurement of reporter stabilization by synthetic peptide; type: biochemical; conditions: room temperature, HaloTag NanoBRET 618 Ligand, versus LgHT-LgBiT alone
Experimental: FIG. 122A-C. […] After preincubation with peptide at 4° C., solutions were diluted 100-fold into buffer and incubated at room temperature. At time points, samples were added 1:1 to buffer either containing or lacking 10 nM final HaloTag® NanoBRET® 618 Ligand. For the reporter alone condition, samples were added 1:1 to a solution containing 10 nM final VS-HiBiT peptide with or without the 618 ligand in order to complement the LgBiT to create the BRET donor. After the last time point, furimazine substrate was added, followed by measuring the FIG. 122(A) luminescent donor signal using a 450 nm bandpass filter and FIG. 122(B) luminescent acceptor signal using a 600 nm longpass filter. The BRET ratio FIG. 122(C) is determined by dividing the acceptor signal by the donor signal for each sample.

B1: LgHT-LgBiT: tandem polypeptide reporter (Reporter) of FIG. 120, 122, 124 (protein)
chain: MFHYVDVGPRDGTPVLFLHGNPTSSYVWRNIIPHVAPTHRCIAPDLIGMGKSDKPDLGYFFDDHVRFMDAFIEALGLEEVVLVIHDWGSALGFHWAKRNPERVKGIAFMEFIRPIPTWDEWPEFARETFQAFRTTDVGRKLIIDQNVFIEGTLPMGVVRPLTEVEMDHYREPFLNPVDREPLWRFPNELPIAGEPANIVALVEEYMDWLHQSPVPKLLFWGTPGVLIPPAEAARLAKSLPNCKAVDIGPGLNLLQEDNPDLIGSEIARWLSTLEISGGSGGSGGGGSGGMVFTLEDFVGDWEQTAAYNLDQVLEQGGVSSLLQNLAVSVTPIQRIVRSGENALKIDIHVIIPYEGLSADQMAQIEEVFKVVYPVDDHHFKVILPYGTLVIDGVTPNMLNYFGRPYEGIAVFDGKKITVTGTLWNGNKIIDERLITPDGSMLFRVTINSGSGHHHHHH
Dissociation from the DualTag peptide [1]: exceptionally slow dissociation kinetics
LgBiT luminescence and LgHT ligand binding activity over time (Raw BRET ratio) [2]: remain intact for longer
